Target: recombinant human PKM2, wild type (human) (UniProt P14618)
Test: native gel or EMSA; blue native gel electrophoresis of recombinant PKM2 (WT or mutant) or PKM1, alone or with FBP and/or scFv 5; resolves dimer and tetramer forms

Chain of recombinant human PKM2, wild type, P14618 1-531 (enzyme; other documents disagree on this pair) (P14618 whole entry): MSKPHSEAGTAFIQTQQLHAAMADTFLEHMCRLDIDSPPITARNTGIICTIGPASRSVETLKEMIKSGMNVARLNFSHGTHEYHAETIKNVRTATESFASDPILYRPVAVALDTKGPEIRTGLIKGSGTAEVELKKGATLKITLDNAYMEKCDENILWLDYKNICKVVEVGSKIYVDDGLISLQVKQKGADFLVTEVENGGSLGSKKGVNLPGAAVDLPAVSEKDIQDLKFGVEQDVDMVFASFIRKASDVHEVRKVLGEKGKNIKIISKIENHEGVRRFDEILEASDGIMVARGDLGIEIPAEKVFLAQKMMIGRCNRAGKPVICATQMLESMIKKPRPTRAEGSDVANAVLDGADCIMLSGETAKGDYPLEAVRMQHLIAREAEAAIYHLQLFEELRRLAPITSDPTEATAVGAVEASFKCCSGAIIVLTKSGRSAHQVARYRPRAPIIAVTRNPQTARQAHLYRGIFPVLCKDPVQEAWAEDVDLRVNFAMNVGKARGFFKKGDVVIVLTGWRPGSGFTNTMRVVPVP

stoichiometry N: 2
Substance: recombinant human PKM2, wild type, P14618 1-531 (enzyme; other documents disagree on this pair)

Source: article PMC6586363
